These results are taken from PMC10786891, “Massively parallel profiling of RNA-targeting CRISPR-Cas13d”.

First the molecules themselves.
B1: target 1 C4A,A9G (mixed)
RNA 1: CACCCGUGCAAAAAUGCAGGGGUCUAAAACUGAGCGGAUAACCUCUCUAUGG
RNA 2: GGGAAUGGAUCCACAUCUACGAAUUCGUACCAUAGAGAGGUUGUCCGAUCACCGAGAUCGGAAGAGCACACGU
B2: target 1 A1U,G12A (mixed)
RNA 1: CACCCGUGCAAAAAUGCAGGGGUCUAAAACUGAGCGGAUAACCUCUCUAUGG
RNA 2: GGGAAUGGAUCCACAUCUACGAAUUCGUACCAUAGAGAGAUUAUCCGCUCUCCGAGAUCGGAAGAGCACACGU
B3: target 1 insC 3' of 17,insA 3' of 8 (mixed)
RNA 1: CACCCGUGCAAAAAUGCAGGGGUCUAAAACUGAGCGGAUAACCUCUCUAUGG
RNA 2: GGGAAUGGAUCCACAUCUACGAAUUCGUACCAUAGCAGAGGUUAUACCGCUCACCGAGAUCGGAAGAGCACACGU
B4: target 1 A1G,G12U (mixed)
RNA 1: CACCCGUGCAAAAAUGCAGGGGUCUAAAACUGAGCGGAUAACCUCUCUAUGG
RNA 2: GGGAAUGGAUCCACAUCUACGAAUUCGUACCAUAGAGAGUUUAUCCGCUCGCCGAGAUCGGAAGAGCACACGU
B5: target 1 insG 3' of 8,insU 3' of 6 (mixed)
RNA 1: CACCCGUGCAAAAAUGCAGGGGUCUAAAACUGAGCGGAUAACCUCUCUAUGG
RNA 2: GGGAAUGGAUCCACAUCUACGAAUUCGUACCAUAGAGAGGUUAUGCCUGCUCACCGAGAUCGGAAGAGCACACGU
B6: target 1 insU 3' of 7,insU 3' of 6 (mixed)
RNA 1: CACCCGUGCAAAAAUGCAGGGGUCUAAAACUGAGCGGAUAACCUCUCUAUGG
RNA 2: GGGAAUGGAUCCACAUCUACGAAUUCGUACCAUAGAGAGGUUAUCUCUGCUCACCGAGAUCGGAAGAGCACACGU
B7: target 1 insG 3' of 10,insA 3' of 6 (mixed)
RNA 1: CACCCGUGCAAAAAUGCAGGGGUCUAAAACUGAGCGGAUAACCUCUCUAUGG
RNA 2: GGGAAUGGAUCCACAUCUACGAAUUCGUACCAUAGAGAGGUUGAUCCAGCUCACCGAGAUCGGAAGAGCACACGU
B8: target 1 A1C,G12U (mixed)
RNA 1: CACCCGUGCAAAAAUGCAGGGGUCUAAAACUGAGCGGAUAACCUCUCUAUGG
RNA 2: GGGAAUGGAUCCACAUCUACGAAUUCGUACCAUAGAGAGUUUAUCCGCUCCCCGAGAUCGGAAGAGCACACGU
B9: target 1 insU 3' of 21,insU 3' of 14 (mixed)
RNA 1: CACCCGUGCAAAAAUGCAGGGGUCUAAAACUGAGCGGAUAACCUCUCUAUGG
RNA 2: GGGAAUGGAUCCACAUCUACGAAUUCGUACCUAUAGAGAUGGUUAUCCGCUCACCGAGAUCGGAAGAGCACACGU
B10: target 1 G12U (mixed)
RNA 1: CACCCGUGCAAAAAUGCAGGGGUCUAAAACUGAGCGGAUAACCUCUCUAUGG
RNA 2: GGGAAUGGAUCCACAUCUACGAAUUCGUACCAUAGAGAGUUUAUCCGCUCACCGAGAUCGGAAGAGCACACGU
B11: target 1 C6U,U10G (mixed)
RNA 1: CACCCGUGCAAAAAUGCAGGGGUCUAAAACUGAGCGGAUAACCUCUCUAUGG
RNA 2: GGGAAUGGAUCCACAUCUACGAAUUCGUACCAUAGAGAGGUGAUCUGCUCACCGAGAUCGGAAGAGCACACGU
B12: target 1 U8C,U19G (mixed)
RNA 1: CACCCGUGCAAAAAUGCAGGGGUCUAAAACUGAGCGGAUAACCUCUCUAUGG
RNA 2: GGGAAUGGAUCCACAUCUACGAAUUCGUACCAGAGAGAGGUUACCCGCUCACCGAGAUCGGAAGAGCACACGU
B13: target 1 insG 3' of 16,insG 3' of 7 (mixed)
RNA 1: CACCCGUGCAAAAAUGCAGGGGUCUAAAACUGAGCGGAUAACCUCUCUAUGG
RNA 2: GGGAAUGGAUCCACAUCUACGAAUUCGUACCAUAGAGGAGGUUAUCGCGCUCACCGAGAUCGGAAGAGCACACGU
B14: target 1 C7G,U19C (mixed)
RNA 1: CACCCGUGCAAAAAUGCAGGGGUCUAAAACUGAGCGGAUAACCUCUCUAUGG
RNA 2: GGGAAUGGAUCCACAUCUACGAAUUCGUACCACAGAGAGGUUAUGCGCUCACCGAGAUCGGAAGAGCACACGU
B15: target 1 C2A,G17C (mixed)
RNA 1: CACCCGUGCAAAAAUGCAGGGGUCUAAAACUGAGCGGAUAACCUCUCUAUGG
RNA 2: GGGAAUGGAUCCACAUCUACGAAUUCGUACCAUACAGAGGUUAUCCGCUAACCGAGAUCGGAAGAGCACACGU
B16: target 1 C4U,U11G (mixed)
RNA 1: CACCCGUGCAAAAAUGCAGGGGUCUAAAACUGAGCGGAUAACCUCUCUAUGG
RNA 2: GGGAAUGGAUCCACAUCUACGAAUUCGUACCAUAGAGAGGGUAUCCGUUCACCGAGAUCGGAAGAGCACACGU
B17: target 1 A1G,G12A (mixed)
RNA 1: CACCCGUGCAAAAAUGCAGGGGUCUAAAACUGAGCGGAUAACCUCUCUAUGG
RNA 2: GGGAAUGGAUCCACAUCUACGAAUUCGUACCAUAGAGAGAUUAUCCGCUCGCCGAGAUCGGAAGAGCACACGU
B18: target 1 insA 3' of 15 (mixed)
RNA 1: CACCCGUGCAAAAAUGCAGGGGUCUAAAACUGAGCGGAUAACCUCUCUAUGG
RNA 2: GGGAAUGGAUCCACAUCUACGAAUUCGUACCAUAGAGAAGGUUAUCCGCUCACCGAGAUCGGAAGAGCACACGU
B19: target 1 insA 3' of 5,insG 3' of 3 (mixed)
RNA 1: CACCCGUGCAAAAAUGCAGGGGUCUAAAACUGAGCGGAUAACCUCUCUAUGG
RNA 2: GGGAAUGGAUCCACAUCUACGAAUUCGUACCAUAGAGAGGUUAUCCGACUGCACCGAGAUCGGAAGAGCACACGU
B20: target 1 C21A (mixed)
RNA 1: CACCCGUGCAAAAAUGCAGGGGUCUAAAACUGAGCGGAUAACCUCUCUAUGG
RNA 2: GGGAAUGGAUCCACAUCUACGAAUUCGUACAAUAGAGAGGUUAUCCGCUCACCGAGAUCGGAAGAGCACACGU
B21: target 1 G12A (mixed)
RNA 1: CACCCGUGCAAAAAUGCAGGGGUCUAAAACUGAGCGGAUAACCUCUCUAUGG
RNA 2: GGGAAUGGAUCCACAUCUACGAAUUCGUACCAUAGAGAGAUUAUCCGCUCACCGAGAUCGGAAGAGCACACGU
B22: target 1 insU 3' of 15,insC 3' of 15 (mixed)
RNA 1: CACCCGUGCAAAAAUGCAGGGGUCUAAAACUGAGCGGAUAACCUCUCUAUGG
RNA 2: GGGAAUGGAUCCACAUCUACGAAUUCGUACCAUAGAGUCAGGUUAUCCGCUCACCGAGAUCGGAAGAGCACACGU
B23: target 1 C7A,A20C (mixed)
RNA 1: CACCCGUGCAAAAAUGCAGGGGUCUAAAACUGAGCGGAUAACCUCUCUAUGG
RNA 2: GGGAAUGGAUCCACAUCUACGAAUUCGUACCCUAGAGAGGUUAUACGCUCACCGAGAUCGGAAGAGCACACGU
B24: target 1 insU 3' of 5,insU 3' of 5 (mixed)
RNA 1: CACCCGUGCAAAAAUGCAGGGGUCUAAAACUGAGCGGAUAACCUCUCUAUGG
RNA 2: GGGAAUGGAUCCACAUCUACGAAUUCGUACCAUAGAGAGGUUAUCCGUUCUCACCGAGAUCGGAAGAGCACACGU
B25: target 1 insG 3' of 18,insA 3' of 7 (mixed)
RNA 1: CACCCGUGCAAAAAUGCAGGGGUCUAAAACUGAGCGGAUAACCUCUCUAUGG
RNA 2: GGGAAUGGAUCCACAUCUACGAAUUCGUACCAUAGGAGAGGUUAUCACGCUCACCGAGAUCGGAAGAGCACACGU
B26: target 1 G13U,A20C (mixed)
RNA 1: CACCCGUGCAAAAAUGCAGGGGUCUAAAACUGAGCGGAUAACCUCUCUAUGG
RNA 2: GGGAAUGGAUCCACAUCUACGAAUUCGUACCCUAGAGAUGUUAUCCGCUCACCGAGAUCGGAAGAGCACACGU
B27: target 1 G5U,U10G (mixed)
RNA 1: CACCCGUGCAAAAAUGCAGGGGUCUAAAACUGAGCGGAUAACCUCUCUAUGG
RNA 2: GGGAAUGGAUCCACAUCUACGAAUUCGUACCAUAGAGAGGUGAUCCUCUCACCGAGAUCGGAAGAGCACACGU

For the data set, the target named is T1, EsCas13d, nuclease-dead (Eubacterium siraeum, UniProt B0MS50, R295A;H300A;R849A;H854A).
T1 sequence: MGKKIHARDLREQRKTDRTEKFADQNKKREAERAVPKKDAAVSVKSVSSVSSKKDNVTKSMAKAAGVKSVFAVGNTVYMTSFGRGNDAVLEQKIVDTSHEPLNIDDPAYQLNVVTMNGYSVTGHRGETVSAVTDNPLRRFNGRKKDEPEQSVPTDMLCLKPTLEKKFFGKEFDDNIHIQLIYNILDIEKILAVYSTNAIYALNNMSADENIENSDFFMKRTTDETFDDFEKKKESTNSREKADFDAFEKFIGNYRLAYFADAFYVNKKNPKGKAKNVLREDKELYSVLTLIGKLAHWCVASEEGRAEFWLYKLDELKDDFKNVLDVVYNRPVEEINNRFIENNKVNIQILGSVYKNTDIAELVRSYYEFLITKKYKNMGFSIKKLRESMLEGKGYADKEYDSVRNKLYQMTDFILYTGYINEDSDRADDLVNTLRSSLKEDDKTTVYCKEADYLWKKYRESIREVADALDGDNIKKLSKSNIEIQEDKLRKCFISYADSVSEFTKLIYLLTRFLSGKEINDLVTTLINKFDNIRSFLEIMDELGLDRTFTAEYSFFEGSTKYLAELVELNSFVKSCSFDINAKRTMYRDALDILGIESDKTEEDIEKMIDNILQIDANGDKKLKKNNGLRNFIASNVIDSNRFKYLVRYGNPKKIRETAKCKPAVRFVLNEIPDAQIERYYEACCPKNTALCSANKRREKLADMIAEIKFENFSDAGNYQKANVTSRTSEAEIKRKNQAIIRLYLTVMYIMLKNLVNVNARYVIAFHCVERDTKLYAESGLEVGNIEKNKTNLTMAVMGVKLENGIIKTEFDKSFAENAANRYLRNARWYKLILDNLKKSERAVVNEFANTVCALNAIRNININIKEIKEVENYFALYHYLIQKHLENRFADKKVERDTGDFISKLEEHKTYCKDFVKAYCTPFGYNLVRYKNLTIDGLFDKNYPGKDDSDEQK
Put plainly: crRNA (strand 1, pre-loaded); Mg2+; 40 mM Tris-HCl pH 7.5, 150 mM NaCl, 6 mM MgCl2, 1 mM DTT, 0.1% Tween-20, 0.2 mg/ml BSA; 25 C; 10 min per concentration, then washed. The conditions noted are these: tags: His6-TwinStrep-SUMO cleaved; N-terminal SNAP kept (SNAP-Surface 488); label: 3' end held by stalled T7 RNA polymerase.
For orientation: Kd means the concentration at which binding is half-saturated. A high value points to lower affinity. The molecule B1 yielded a Kd of 3.18 ± 0.24 nM.

With B2, the Kd was 5.2 ± 0.5 nM.

For B3, the Kd stood at 52 ± 7 nM.

B4 registered a Kd of 9.4 ± 0.6 nM. To B5 belongs 16.5 ± 0.6 nM; to B6, 55 ± 4 nM. For B7 the value was 41 ± 6 nM; for B8, 13.9 ± 2.1 nM.

B9 had a Kd of 45 ± 9 nM.

The molecule B10 gave a Kd of 10.3 ± 0.5 nM. To B11 belongs 15.7 ± 1.1 nM; to B12, 76 ± 10 nM.

On to B13, for which the Kd is 16.5 ± 1.7 nM. For B14 the value was 32.2 ± 2.7 nM. On to B15, for which the dissociation constant Kd was found to be 57 ± 5 nM. The molecule B16 had a Kd of 21 ± 4 nM.

As to B17, the Kd is 5.9 ± 0.5 nM.

Take B18: the affinity, expressed as Kd, was 5.9 ± 0.6 nM. For B19 the value was 5.94 ± 0.29 nM. Regarding B20, the Kd is 24.1 ± 2 nM. To B21 belongs 5.5 ± 0.4 nM; to B22, 28.4 ± 3.2 nM; to B23, 61 ± 22 nM.

Molecule B24 showed a Kd of 19 ± 4 nM. In the case of B25, the Kd was 43 ± 4 nM. With B26, the Kd is roughly 90 nM. To B27 belongs 57 ± 5 nM.
